Data taken from patent US20220089698A1 (published 2022).

Key:
HIV gp120 Bal = HIV gp120 Bal (HIV); assay: single-point ELISA; note: test concentration or dose not given here
HIV gp120 CAAN = HIV gp120 CAAN (HIV); assay: single-point ELISA; note: test concentration or dose not given here

B1: 1.1.4-1 (antibody, human IgG1, kappa)
heavy: QVQLLQSGAAVTKPGASVRVSCEASGYNIRDYFIHWWRQAPGQGLQWVGWINPKTGQPNNPRQFQGRVSLTRHASWDFDTFSFYMDLKALRSDDTAVYFCARQRSDYWDFDVWGSGTQVTVSSASTKGPSVFPLAPSSKSTSGGTAALGCLVKDYFPEPVTVSWNSGALTSGVHTFPAVLQSSGLYSLSSVVTVPSSSLGTQTYICNVNHKPSNTKVDKKVEPKSCDKTHTCPPCPAPELLAGPDVFLFPPKPKDTLMISRTPEVTCVVVDVSHEDPEVKFNWYVDGVEVHNAKTKPREEQYNSTYRVVSVLTVLHQDWLNGKEYKCKVSNKALPLPEEKTISKAKGQPREPQVYTLPPSREEMTKNQVSLTCLVKGFYPSDIAVEWESNGQPENNYKTTPPVLDSDGSFFLYSKLTVDKSRWQQGNVFSCSVLHEALHSHYTQKSLSLSPGK
light: DIQMTQSPSSLSASVGDRVTITCQANGYLNWYQQRRGKAPKLLIYDGSKLERGVPSRFSGRRWGQEYNLTINNLQPEDIATYFCQVYEFVVPGTRLDLKRTVAAPSVFIFPPSDEQLKSGTASVVCLLNNFYPREAKVQWKVDNALQSGNSQESVTEQDSKDSTYSLSSTLTLSKADYEKHKVYACEVTHQGLSSPVTKSFNRGEC
- ELISA (A450) (HIV gp120 Bal): 0.96 A450
- ELISA (A450) (HIV gp120 CAAN): 1.09 A450

B2: 1.1.6-1 (antibody, human IgG1, kappa)
heavy: QVQLLQSGAAVTKPGASVRVSCEASGYNIRDYFIHWWRQAPGQGLQWVGWINPKTGQPNNPRQFQGRVSLTRHASWDFDTFSFYMDLKALRSDDTAVYFCARQRSDYWDFDVWGSGTQVTVSSASTKGPSVFPLAPSSKSTSGGTAALGCLVKDYFPEPVTVSWNSGALTSGVHTFPAVLQSSGLYSLSSVVTVPSSSLGTQTYICNVNHKPSNTKVDKKVEPKSCDKTHTCPPCPAPELLAGPDVFLFPPKPKDTLMISRTPEVTCVVVDVSHEDPEVKFNWYVDGVEVHNAKTKPREEQYNSTYRVVSVLTVLHQDWLNGKEYKCKVSNKALPLPEEKTISKAKGQPREPQVYTLPPSREEMTKNQVSLTCLVKGFYPSDIAVEWESNGQPENNYKTTPPVLDSDGSFFLYSKLTVDKSRWQQGNVFSCSVLHEALHSHYTQKSLSLSPGK
light: DIQMTQSPSSLSASVGDTVTITCQANGYLNWYQQRRGKAPKLLIYDASKLERGVPSRFSGRRWGQEYNLTINNLQPEDIATYFCQVYEFVVPGTRLDLKRTVAAPSVFIFPPSDEQLKSGTASVVCLLNNFYPREAKVQWKVDNALQSGNSQESVTEQDSKDSTYSLSSTLTLSKADYEKHKVYACEVTHQGLSSPVTKSFNRGEC
- ELISA (A450) (HIV gp120 Bal): 0.91 A450
- ELISA (A450) (HIV gp120 CAAN): 0.46 A450

B3: 1.1.5-1 (antibody, human IgG1, kappa)
heavy: QVQLLQSGAAVTKPGASVRVSCEASGYNIRDYFIHWWRQAPGQGLQWVGWINPKTGQPNNPRQFQGRVSLTRHASWDFDTFSFYMDLKALRSDDTAVYFCARQRSDYWDFDVWGSGTQVTVSSASTKGPSVFPLAPSSKSTSGGTAALGCLVKDYFPEPVTVSWNSGALTSGVHTFPAVLQSSGLYSLSSVVTVPSSSLGTQTYICNVNHKPSNTKVDKKVEPKSCDKTHTCPPCPAPELLAGPDVFLFPPKPKDTLMISRTPEVTCVVVDVSHEDPEVKFNWYVDGVEVHNAKTKPREEQYNSTYRVVSVLTVLHQDWLNGKEYKCKVSNKALPLPEEKTISKAKGQPREPQVYTLPPSREEMTKNQVSLTCLVKGFYPSDIAVEWESNGQPENNYKTTPPVLDSDGSFFLYSKLTVDKSRWQQGNVFSCSVLHEALHSHYTQKSLSLSPGK
light: DIQMTQSPSSLSASVGDTVTITCQANGYLNWYQQKPGKAPKLLIYDGSKLERGVPSRFSGRRWGQEYNLTINNLQPEDIATYFCQVYEFVVPGTRLDLKRTVAAPSVFIFPPSDEQLKSGTASVVCLLNNFYPREAKVQWKVDNALQSGNSQESVTEQDSKDSTYSLSSTLTLSKADYEKHKVYACEVTHQGLSSPVTKSFNRGEC
- ELISA (A450) (HIV gp120 Bal): 0.9 A450
- ELISA (A450) (HIV gp120 CAAN): 0.9 A450
